# Experimental data taken from the supplement of paper PMC5998384.
# Key:
# HeLa Kyoto [1] = assay: thermal stability score vs G1/S (z-score of summed log2 fold changes over temperatures); higher = more thermally stable than in G1/S
# HeLa Kyoto [2] = assay: melting temperature (median over replicates), in situ; higher = more thermally stable
# [3] = cell cycle stage: early G1 (4.5 h after nocodazole release)
# 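Wherever melting temperature (median over replicates), in situ is given: HeLa Kyoto cells synchronized by double thymidine or nocodazole block, proteins quantified by TMT10plex mass spectrometry, three independent biological replicates.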
# 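Wherever thermal stability score vs G1/S (z-score of summed log2 fold changes over temperatures) is given: synchronized HeLa Kyoto cells, proteins quantified by TMT10plex mass spectrometry, three biological replicates, mitosis taken 0.5 h after nocodazole release, G1/S directly after double thymidine block.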
# MSRB2, sequence (chain, as listed by the source): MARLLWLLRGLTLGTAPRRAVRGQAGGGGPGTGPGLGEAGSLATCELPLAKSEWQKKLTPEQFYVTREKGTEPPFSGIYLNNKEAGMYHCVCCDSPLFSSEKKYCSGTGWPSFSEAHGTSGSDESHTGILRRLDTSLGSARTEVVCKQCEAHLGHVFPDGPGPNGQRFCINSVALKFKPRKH
# GORASP1, sequence (chain, as listed by the source): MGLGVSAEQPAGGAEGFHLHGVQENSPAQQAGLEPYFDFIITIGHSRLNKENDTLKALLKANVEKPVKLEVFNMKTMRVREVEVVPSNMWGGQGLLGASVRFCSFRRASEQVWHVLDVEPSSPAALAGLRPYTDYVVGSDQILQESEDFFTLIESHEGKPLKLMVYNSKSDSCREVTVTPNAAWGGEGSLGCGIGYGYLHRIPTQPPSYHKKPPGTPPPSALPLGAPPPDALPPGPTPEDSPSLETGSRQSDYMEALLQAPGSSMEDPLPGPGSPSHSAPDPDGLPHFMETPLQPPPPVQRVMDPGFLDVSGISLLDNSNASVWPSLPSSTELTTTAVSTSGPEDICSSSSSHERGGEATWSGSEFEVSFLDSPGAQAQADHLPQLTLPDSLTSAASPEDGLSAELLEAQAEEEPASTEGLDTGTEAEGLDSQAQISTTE
Substance,thermal stability score (HeLa Kyoto [1]; [3]),thermal stability score (HeLa Kyoto [1]; cell cycle stage: mitosis),melting temperature (HeLa Kyoto [2]; cell cycle stage: G1/S) [°C],melting temperature (HeLa Kyoto [2]; cell cycle stage: mitosis) [°C]
DENND4B,-0.499,-0.617,–,–
GORASP1,0.552,0.301,–,–
MAAAEEGCSVGAEADRELEELLESALDDFDKAKPSPAPPSTTTAPDASGPQKRSPGDTAKDALFASQEKFFQELFDSELASQATAEFEKAMKELAEEEPHLVEQFQKLSEAAGRVGSDMTSQQEFTSCLKETLSGLAKNATDLQNSSMSEEELTKAMEGLGMDEGDGEGNILPIMQSIMQNLLSKDVLYPSLKEITEKYPEWLQSHRESLPPEQFEKYQEQHSVMCKICEQFEAETPTDSETTQKARFEMVLDLMQQLQDLGHPPKELAGEMPPGLNFDLDALNLSGPPGASGEQCLIM [G3V3G9|DCAF8],0.212,-1,–,–
MAGVSACIKYSMFTFNFLFWLCGILILALAIWVRVSNDSQAIFGSEDVGSSSYVAVDILIAVGAIIMILGFLGCCGAIKESRCMLLLFFIGLLLILLLQVATGILGAVFKSKSDRIVNETLYENTKLLSATGESEKQFQEAIIVFQEEFKCCGLVNGAADWGNNFQHYPELCACLDKQRPCQSYNGKQVYKETCISFIKDFLAKNLIIVIGISFGLAVIEILGLVFSMVLYCQIGNK [TSPAN8],1.86,-1.57,–,–
MALSRVCWARSAVWGSAVTPGHFVTRRLQLGRSGLAWGAPRSSKLHLSPKADVKNLMSYVVTKTKAINGKYHRFLGRHFPRFYVLYTIFMKGLQMLWADAKKARRIKTNMWKHNIKFHQLPYREMEHLRQFRQDVTKCLFLGIISIPPFANYLVFLLMYLFPRQLLIRHFWTPKQQTDFLDIYHAFRKQSHPEIISYLEKVIPLISDAGLRWRLTDLCTKIQRGTHPAIHDILALRECFSNHPLGMNQLQALHVKALSRAMLLTSYLPPPLLRHRLKTHTTVIHQLDKALAKLGIGQLTAQEVKSACYLRGLNSTHIGEDRCRTWLGEWLQISCSLKEAELSLLLHNVVLLSTNYLGTRR [LETMD1],-0.886,-0.884,–,–
MGSRWSSEEERQPLLGPGLGPGLGASWRSREAAAAALPAAVPGPGRVYGRRWLVLLLFSLLAFVQGLVWNTWGPIQNSARQAYGFSSWDIALLVLWGPIGFLPCFAFMWLLDKRGLRITVLLTSFLMVLGTGLRCIPISDLILKRRLIHGGQMLNGLAGPTVMNAAPFLSTTWFSADERATATAIASMLSYLGGACAFLVGPLVVPAPNGTSPLLAAESSRAHIKDRIEAVLYAEFGVVCLIFSATLAYFPPRPPLPPSVAAASQRLSYRRSVCRLLSNFRFLMIALAYAIPLGVFAGWSGVLDLILTPAHVSQVDAGWIGFWSIVGGCVVGIAMARFADFIRGMLKLILLLLFSGATLSSTWFTLTCLNSITHLPLTTVTLYASCILLGVFLNSSVPIFFELFVETVYPVPEGITCGVVTFLSNMFMGVLLFFLTFYHTELSWFNWCLPGSCLLSLLLILCFRESYDRLYLDVVVSV [DIRC2],–,–,54.8,–
MIEAEEQQPCKTDFYSELPKVELHAHLNGSISSHTMKKLIAQKPDLKIHDQMTVIDKGKKRTLEECFQMFQTIHQLTSSPEDILMVTKDVIKEFADDGVKYLELRSTPRRENATGMTKKTYVESILEGIKQSKQENLDIDVRYLIAVDRRGGPLVAKETVKLAEEFFLSTEGTVLGLDLSGDPTVGQAKDFLEPLLEAKKAGLKLALHLSEIPNQKKETQILLDLLPDRIGHGTFLNSGEGGSLDLVDFVRQHRIPLELCLTSNVKSQTVPSYDQHHFGFWYSIAHPSVICTDDKGVFATHLSQEYQLAAETFNLTQSQVWDLSYESINYIFASDSTRSELRKKWNHLKPRVLHI [ADAL],–,–,57.1,57.2
MKKTPVFLESLVTNMLRLRAICPFSWRVFQFRPISCEPLIIQMNKCTDEEQMFGFIERNKAILSEKQVGCAFDMLWKLQKQKTSLLKNAEYVRDHPQFLTLHNLATNKFKLMNDDTLVNVLYVTQQFAGEAHDPLVEALVTEAWRRLERFDIKLLSEFSSCLADQHLYFSPLMGKIADIVHRNLETTQDLSSLSVLMVNISSLISRHFQQQLVNKTELLFDTIDSSEVNVAKSIAKFLRNVRYRYQPLLERCNNVFLSNVDHLDLDSISKILSVYKFLQFNSFEFIIMAKKKLTEMIPLCNHPASFVKLFVALGPIAGPEEKKQLKSTMLLMSEDLTGEQALAVLGAMGDMESRNSCLIKRVTSVLHKHLDGYKPLELLKITQELTFLHFQRKEFFAKLRELLLSYLKNSFIPTEVSVLVRAISLLPSPHLDEVGISRIEAVLPQCDLNNLSSFATSVLRWIQHDHMYLDNMTAKQLKLLQKLDHYGRQRLQHSNSLDLLRKELKSLKGNTFPESLLEEMIATLQHFMDDINYINVGEIASFISSTDYLSTLLLDRIASVAVQQIEKIHPFTIPAIIRPFSVLNYDPPQRDEFLGTCVQHLNSYLGILDPFILVFLGFSLATLEYFPEDLLKAIFNIKFLARLDSQLEILSPSRSARVQFHLMELNRSVCLECPEFQIPWFHDRFCQQYNKGIGGMDGTQQQIFKMLAEVLGGINCVKASVLTPYYHKVDFECILDKRKKPLPYGSHNIALGQLPEMPWESNIEIVGSRLPPGAERIALEFLDSKALCRNIPHMKGKSAMKKRHLEILGYRVIQISQFEWNSMALSTKDARMDYLRECIFGEVKSCL [FASTKD1],–,–,–,49.9
MKPNFSLRLRIFNLNCWGIPYLSKHRADRMRRLGDFLNQESFDLALLEEVWSEQDFQYLRQKLSPTYPAAHHFRSGIIGSGLCVFSKHPIQELTQHIYTLNGYPYMIHHGDWFSGKAVGLLVLHLSGMVLNAYVTHLHAEYNRQKDIYLAHRVAQAWELAQFIHHTSKKADVVLLCGDLNMHPEDLGCCLLKEWTGLHDAYLETRDFKGSEEGNTMVPKNCYVSQQELKPFPFGVRIDYVLYKAVSGFYISCKSFETTTGFDPHRGTPLSDHEALMATLFVRHSPPQQNPSSTHGPAERSPLMCVLKEAWTELGLGMAQARWWATFASYVIGLGLLLLALLCVLAAGGGAGEAAILLWTPSVGLVLWAGAFYLFHVQEVNGLYRAQAELQHVLGRAREAQDLGPEPQPALLLGQQEGDRTKEQ [SMPD2],–,–,–,55.7
MLILTKTAGVFFKPSKRKVYEFLRSFNFHPGTLFLHKIVLGIETSCDDTAAAVVDETGNVLGEAIHSQTEVHLKTGGIVPPAAQQLHRENIQRIVQEALSASGVSPSDLSAIATTIKPGLALSLGVGLSFSLQLVGQLKKPFIPIHHMEAHALTIRLTNKVEFPFLVLLISGGHCLLALVQGVSDFLLLGKSLDIAPGDMLDKVARRLSLIKHPECSTMSGGKAIEHLAKQGNRFHFDIKPPLHHAKNCDFSFTGLQHVTDKIIMKKEKEEGIEKGQILSSAADIAATVQHTMACHLVKRTHRAILFCKQRDLLPQNNAVLVASGGVASNFYIRRALEILTNATQCTLLCPPPRLCTDNGIMIAWNGIERLRAGLGILHDIEGIRYEPKCPLGVDISKEVGEASIKVPQLKMEI [OSGEPL1],–,–,53.6,51.1
MLQQDSNDDTEDVSLFDAEEETTNRPRKAKIRHPVASFFHLFFRVSAIIVCLLCELLSSSFITCMVTIILLLSCDFWAVKNVTGRLMVGLRWWNHIDEDGKSHWVFESRKESSQENKTVSEAESRIFWLGLIACSVLWVIFAFSALFSFTVKWLRRSRHIAQTGLKVLGSRDPPASAFQSAGITGVSRCPGHPSRKFHQVDINSFTRITDRALYWKPAPRLSSPPLRAAPGNCQQMAPARLFLSLRLWAWRGGGESPNSRGTGEPGPKFHLASGMH [TVP23C],–,–,–,56
MNILPKKSWHVRNKDNVARVRRDEAQAREEEKERERRVLLAQQEARTEFLRKKARHQNSLPELEAAEAGAPGSGPVDLFRELLEEGKGVIRGNKEYKEEKRQEKERQEKALGILTYLGQSAAEAQTQPPWYQLPPGRGGPPPGPAPDEKIKSRLDPLREMQKHLGKKRQHGGDEGSRSRKEKEGSEKQRPKEPPSLDQLRAERLRREAAERSRAEALLARVQGRALQEGQPEEDETDDRRRRYNSQFNPQLARRPRQQDPHLTH [LENG1],–,–,–,52.5
MPFRLLIPLGLLCALLPQHHGAPGPDGSAPDPAHYRERVKAMFYHAYDSYLENAFPFDELRPLTCDGHDTWGSFSLTLIDALDTLLILGNVSEFQRVVEVLQDSVDFDIDVNASVFETNIRVVGGLLSAHLLSKKAGVEVEAGWPCSGPLLRMAEEAARKLLPAFQTPTGMPYGTVNLLHGVNPGETPVTCTAGIGTFIVEFATLSSLTGDPVFEDVARVALMRLWESRSDIGLVGNHIDVLTGKWVAQDAGIGAGVDSYFEYLVKGAILLQDKKLMAMFLEYNKAIRNYTRFDDWYLWVQMYKGTVSMPVFQSLEAYWPGLQSLIGDIDNAMRTFLNYYTVWKQFGGLPEFYNIPQGYTVEKREGYPLRPELIESAMYLYRATGDPTLLELGRDAVESIEKISKVECGFATIKDLRDHKLDNRMESFFLAETVKYLYLLFDPTNFIHNNGSTFDAVITPYGECILGAGGYIFNTEAHPIDPAALHCCQRLKEEQWEVEDLMREFYSLKRSRSKFQKNTVSSGPWEPPARPGTLFSPENHDQARERKPAKQKVPLLSCPSQPFTSKLALLGQVFLDSS [EDEM2],–,–,55.3,–
MPSSLPGSQVPHPTLDAVDLVEKTLRNEGTSSSAPVLEEGDTDPWTLPQLKDTSQPWKELRVAGRLRRVAGSVLKACGLLGSLYFFICSLDVLSSAFQLLGSKVAGDIFKDNVVLSNPVAGLVIGVLVTALVQSSSTSSSIVVSMVAAKLLTVRVSVPIIMGVNVGTSITSTLVSMAQSGDRDEFQRAFSGSAVHGIFNWLTVLVLLPLESATALLERLSELALGAASLTPRAQAPDILKVLTKPLTHLIVQLDSDMIMSSATGNATNSSLIKHWCGTTGQPTQENSSCGAFGPCTEKNSTAPADRLPCRHLFAGTELTDLAVGCILLAGSLLVLCGCLVLIVKLLNSVLRGRVAQVVRTVINADFPFPLGWLGGYLAVLAGAGLTFALQSSSVFTAAVVPLMGVGVISLDRAYPLLLGSNIGTTTTALLAALASPADRMLSALQVALIHFFFNLAGILLWYLVPALRLPIPLARHFGVVTARYRWVAGVYLLLGFLLLPLAAFGLSLAGGMELAAVGGPLVGLVLLVILVTVLQRRRPAWLPVRLRSWAWLPVWLHSLEPWDRLVTRCCPCNVCSPPKATTKEAYCYENPEILASQQL [SLC34A3],–,–,–,57.5
MQFMLLFSRQGKLRLQKWYVPLSDKEKKKITRELVQTVLARKPKMCSFLEWRDLKIVYKRYASLYFCCAIEDQDNELITLEIIHRYVELLDKYFGSVCELDIIFNFEKAYFILDEFLLGGEVQETSKKNVLKAIEQADLLQEEAETPRSVLEEIGLT [AP1S2],–,–,–,49.7
MRWRTILLQYCFLLITCLLTALEAVPIDIDKTKVQNIHPVESAKIEPPDTGLYYDEYLKQVIDVLETDKHFREKLQKADIEEIKSGRLSKELDLVSHHVRTKLDELKRQEVGRLRMLIKAKLDSLQDIGMDHQALLKQFDHLNHLNPDKFESTDLDMLIKAATSDLEHYDKTRHEEFKKYEMMKEHERREYLKTLNEEKRKEEESKFEEMKKKHENHPKVNHPGSKDQLKEVWEETDGLDPNDFDPKTFFKLHDVNSDGFLDEQELEALFTKELEKVYDPKNEEDDMVEMEEERLRMREHVMNEVDTNKDRLVTLEEFLKATEKKEFLEPDSWETLDQQQFFTEEELKEYENIIALQENELKKKADELQKQKEELQRQHDQLEAQKLEYHQVIQQMEQKKLQQGIPPSGPAGELKFEPHI [NUCB2],–,–,55.5,56.9
MSKRNQVSYVRPAEPAFLARFKERVGYREGPTVETKRIQPQPPDEDGDHSDKEDEQPQVVVLKKGDLSVEEVMKIKAEIKAAKADEEPTPADGRIIYRKPVKHPSDEKYSGLTASSKKKKPNEDEVNQDSVKKNSQKQIKNSSLLSFDNEDENE [KIAA1143],–,–,–,52
MSRB2,–,–,52.4,52.6
MWSRLVWLGLRAPLGGRQGFTSKADPQGSGRITAAVIEHLERLALVDFGSREAVARLEKAIAFADRLRAVDTDGVEPMESVLEDRCLYLRSDNVVEGNCADELLQNSHRVVEEYFVAPPGNISLPKLDEQEPFPHS [GATC],–,–,51.7,–
